Consider 7 proteins from publication PMC6706441, “B1 oligomerization regulates PML nuclear body biogenesis and leukemogenesis” (Nature Communications, 2019).

Data set [1] concerns the molecule itself. The data set is described as follows: AUC; sedimentation velocity of the gel filtration peaks; Beckman XL-1, 130,000 g, 20 °C, >12 h; 20 mM Tris, pH 8.0, 100 mM NaCl; SEDFIT continuous c(s) model. On the technique in general: Size exclusion chromatography separates by hydrodynamic size, large species first.
Data set [2] deals with the molecule itself. The data set is described as follows: SEC; gel filtration on a calibrated Superdex 200 column; 20 mM Tris, pH 8.0, 100 mM NaCl.
Data set [3] concerns the molecule itself. The data set is described as follows: cross-linking; 0.3 μg purified HA-PML(1–256) with increasing glutaraldehyde, on ice 30 min, 20 mM Hepes pH 7.4; 4–12% SDS-PAGE, anti-HA immunoblot. (A western blot detects proteins with antibodies after separation by electrophoresis.)
Data set [4] deals with the molecule itself. The experiment in a line: crystal structure; vapor diffusion, protein 38 mg/ml; 30% PEG 6000, 1 M lithium chloride, 100 mM sodium acetate; Zn SAD; oligomers from the asymmetric unit and crystal packing.
Data set [5] concerns the molecule itself. The data set is described as follows: cross-linking; 5 μg purified B1 with 0.05, 0.1, 0.2% (w/v) glutaraldehyde, on ice 30 min, 20 mM Hepes pH 7.4; 8–16% SDS-PAGE, coomassie.

Substitutions are numbered along the chain they refer to. Names may count otherwise. “And” between values parts separate entries of the source, which are not always exact repeats. Equal entries are not always repeated.

B1: PML_(1–256) I122P/V123P (domain or fragment, UniProt P29590-1 1-256, looked up)
chain: MEPAPARSPRPQQDPARPQEPTMPPPETPSEGRQPSPSPSPTERAPASEEEFQFLRCQQCQAEAKCPKLLPCLHTLCSGCLEASGMQCPICQAPWPLGADTPALDNVFFESLQRRLSVYRQPPDAQAVCTRCKESADFWCFECEQLLCAKCFEAHQWFLKHEARPLAELRNQSVREFLDGTRKTNNIFCSNPNHRTPTLTSIYCRGCSKPLCCSCALLDSSHSELKCDISAEIQQRQEELDAMTQALQEQDSAFGA
notes: PML (TRIM19), residues 1-256, double mutant I122P/V123P; source: E. coli BL21 (DE3), purified (His-Trap, thrombin, Q, Phenyl, Superdex 200); not shown: SUMO (human), N-terminal, cleaved; His tag, N-terminal, cleaved
Regarding B1, the binding result in data set [1] was “binds”.

B2: PML RBCC fragment, residues 1-256 (RING, B1, B2 and a 20-residue coiled-coil), wild type (domain or fragment, UniProt P29590-1 1-256, looked up)
chain: B1 chain with P122I, P123V
notes: PML (TRIM19), residues 1-256: RING, B1-box, B2-box and a 20-residue coiled-coil; His tag lay between SUMO and PML; SUMO-His removed after thrombin digestion; Mixture of monomer, dimer, tetramer and N-mer in solution; also called PML_(1–256); RBCC_(1–256); source: E. coli BL21 (DE3), purified (His-Trap, thrombin, Q, Phenyl, Superdex 200); not shown: SUMO (human), N-terminal, cleaved; His tag, …
B2: the stoichiometry N (as a rule, the number of molecules, sites or subunits per partner or assembly) in data set [1] was 2 and 4.

B3: PML_(1–256) F158E (domain or fragment, UniProt P29590-1 1-256, looked up)
chain: B1 chain with P122I, P123V, F158E
notes: PML (TRIM19), residues 1-256, mutant F158E; source: E. coli BL21 (DE3), purified (His-Trap, thrombin, Q, Phenyl, Superdex 200); not shown: SUMO (human), N-terminal, cleaved; His tag, N-terminal, cleaved
Consider B3, for which the binding result in data set [2] was “binds”.

B4: HA-PML_(1–256) I122P/V123P (domain or fragment, UniProt P29590-1 1-256, looked up)
chain: B1 chain
notes: PML (TRIM19), residues 1-256, double mutant I122P/V123P; See note of m9; source: purified
As to B4, the binding result in data set [3] was “binds”.

B5: PML_(1–256) W157E (domain or fragment, UniProt P29590-1 1-256, looked up)
chain: B1 chain with P122I, P123V, W157E
notes: PML (TRIM19), residues 1-256, mutant W157E; source: E. coli BL21 (DE3), purified (His-Trap, thrombin, Q, Phenyl, Superdex 200); not shown: SUMO (human), N-terminal, cleaved; His tag, N-terminal, cleaved
As to B5, the binding result in data set [2] was “binds”.

B6: PML B1-box, residues 120-168, wild type (domain or fragment, UniProt P29590 120-168, looked up)
chain: RQIVDAQAVCTRCKESADFWCFECEQLLCAKCFEAHQWFLKHEARPLAE
notes: PML (TRIM19) B1-box, residues 120-168; residues 120-167 are seen in the crystallographic monomer; Four molecules in the asymmetric unit; also called WT B1; source: E. coli BL21 (DE3), purified (His-Trap, thrombin, Q, Phenyl, S100); not shown: His tag, N-terminal, cleaved
Consider B6, for which, in data set [4], the binding result was “binds”.

B7: PML B1-box I122P/V123P (domain or fragment, UniProt P29590 120-168, looked up)
chain: B6 chain with I3P, V4P
notes: PML (TRIM19) B1-box, residues 120-168, double mutant I122P/V123P; PDB 6IMQ holds the wild-type parent; source: E. coli BL21 (DE3), purified (His-Trap, thrombin, Q, Phenyl, S100); not shown: His tag, N-terminal, cleaved
As to B7, the binding result in data set [5] was “binds”.
